Laboratory results: PMC5572259, “The C-terminal Six Amino Acids of the FNT Channel FocA Are Required for Formate Translocation But Not Homopentamer Integrity” (Frontiers in Microbiology, 2017)
Where “and” joins values, the source holds several entries; their conditions need not be identical. Equal entries are not always repeated.

B1: N-terminally Strep-tagged FocA (native, full-length formate channel FocA of Escherichia coli) (natural protein, UniProt P0AC23 1-285, looked up)
chain: MKADNPFDLLLPAAMAKVAEEAGVYKATKHPLKTFYLAITAGVFISIAFVFYITATTGTGTMPFGMAKLVGGICFSLGLILCVVCGADLFTSTVLIVVAKASGRITWGQLAKNWLNVYFGNLVGALLFVLLMWLSGEYMTANGQWGLNVLQTADHKVHHTFIEAVCLGILANLMVCLAVWMSYSGRSLMDKAFIMVLPVAMFVASGFEHSIANMFMIPMGIVIRDFASPEFWTAVGSAPENFSHLTVMNFITDNLIPVTIGNIIGGGLLVGLTYWVIYLRENDHH
notes: Formate channel FocA, Escherichia coli, full length (ends with H285; C-terminal residues after R280 are ENDHH); Kept in 2 mM DDM after purification; also called FocA5; native FocA5; source: E. coli BL21(DE3) with pfocA5 (pASK-IBA5focA), membrane fraction solubilised with DDM, purified (Strep-Tactin-Sepharose); not shown: Strep-tag II, N-terminal, kept
B2: FocA5E281 (FocA truncation variant ending with E281, lacking N282, D283, H284 and H285) (domain or fragment, Escherichia coli, UniProt P0AC23 1-281, looked up)
chain: MKADNPFDLLLPAAMAKVAEEAGVYKATKHPLKTFYLAITAGVFISIAFVFYITATTGTGTMPFGMAKLVGGICFSLGLILCVVCGADLFTSTVLIVVAKASGRITWGQLAKNWLNVYFGNLVGALLFVLLMWLSGEYMTANGQWGLNVLQTADHKVHHTFIEAVCLGILANLMVCLAVWMSYSGRSLMDKAFIMVLPVAMFVASGFEHSIANMFMIPMGIVIRDFASPEFWTAVGSAPENFSHLTVMNFITDNLIPVTIGNIIGGGLLVGLTYWVIYLRE
notes: source: E. coli BL21(DE3) with pfocA5E281, membrane fraction solubilised with DDM, purified (Strep-Tactin-Sepharose); not shown: Strep-tag II, N-terminal, kept
B3: FocA5L279 (FocA truncation variant ending with L279, lacking R280, E281, N282, D283, H284 and H285) (domain or fragment, Escherichia coli, UniProt P0AC23 1-279, looked up)
chain: MKADNPFDLLLPAAMAKVAEEAGVYKATKHPLKTFYLAITAGVFISIAFVFYITATTGTGTMPFGMAKLVGGICFSLGLILCVVCGADLFTSTVLIVVAKASGRITWGQLAKNWLNVYFGNLVGALLFVLLMWLSGEYMTANGQWGLNVLQTADHKVHHTFIEAVCLGILANLMVCLAVWMSYSGRSLMDKAFIMVLPVAMFVASGFEHSIANMFMIPMGIVIRDFASPEFWTAVGSAPENFSHLTVMNFITDNLIPVTIGNIIGGGLLVGLTYWVIYL
notes: FocA, Escherichia coli, stop codon at codon 280 (lacking R280, E281, N282, D283, H284 and H285); also called FocAL279; source: E. coli BL21(DE3) with pfocAL279 (pfocA5L279), membrane fraction solubilised with DDM, purified (Strep-Tactin-Sepharose); not shown: Strep-tag II, N-terminal, kept
B4: FocA5H284 (FocA truncation variant ending with H284, lacking H285) (domain or fragment, Escherichia coli, UniProt P0AC23 1-284, looked up)
chain: MKADNPFDLLLPAAMAKVAEEAGVYKATKHPLKTFYLAITAGVFISIAFVFYITATTGTGTMPFGMAKLVGGICFSLGLILCVVCGADLFTSTVLIVVAKASGRITWGQLAKNWLNVYFGNLVGALLFVLLMWLSGEYMTANGQWGLNVLQTADHKVHHTFIEAVCLGILANLMVCLAVWMSYSGRSLMDKAFIMVLPVAMFVASGFEHSIANMFMIPMGIVIRDFASPEFWTAVGSAPENFSHLTVMNFITDNLIPVTIGNIIGGGLLVGLTYWVIYLRENDH
notes: FocA, Escherichia coli, stop codon at codon 285 (lacking H285); source: E. coli BL21(DE3) with pfocA5H284, membrane fraction solubilised with DDM, purified (Strep-Tactin-Sepharose); not shown: Strep-tag II, N-terminal, kept
B5: FocA5R280 (FocA truncation variant ending with R280, lacking E281, N282, D283, H284 and H285) (domain or fragment, Escherichia coli, UniProt P0AC23 1-280, looked up)
chain: MKADNPFDLLLPAAMAKVAEEAGVYKATKHPLKTFYLAITAGVFISIAFVFYITATTGTGTMPFGMAKLVGGICFSLGLILCVVCGADLFTSTVLIVVAKASGRITWGQLAKNWLNVYFGNLVGALLFVLLMWLSGEYMTANGQWGLNVLQTADHKVHHTFIEAVCLGILANLMVCLAVWMSYSGRSLMDKAFIMVLPVAMFVASGFEHSIANMFMIPMGIVIRDFASPEFWTAVGSAPENFSHLTVMNFITDNLIPVTIGNIIGGGLLVGLTYWVIYLR
notes: FocA, Escherichia coli, stop codon at codon 281 (lacking E281, N282, D283, H284 and H285); also called FocAR280; source: E. coli BL21(DE3) with pfocA5R280, membrane fraction solubilised with DDM, purified (Strep-Tactin-Sepharose); not shown: Strep-tag II, N-terminal, kept
B6: FocA5N282 (FocA truncation variant ending with N282, lacking D283, H284 and H285) (domain or fragment, Escherichia coli, UniProt P0AC23 1-282, looked up)
chain: MKADNPFDLLLPAAMAKVAEEAGVYKATKHPLKTFYLAITAGVFISIAFVFYITATTGTGTMPFGMAKLVGGICFSLGLILCVVCGADLFTSTVLIVVAKASGRITWGQLAKNWLNVYFGNLVGALLFVLLMWLSGEYMTANGQWGLNVLQTADHKVHHTFIEAVCLGILANLMVCLAVWMSYSGRSLMDKAFIMVLPVAMFVASGFEHSIANMFMIPMGIVIRDFASPEFWTAVGSAPENFSHLTVMNFITDNLIPVTIGNIIGGGLLVGLTYWVIYLREN
notes: FocA, Escherichia coli, stop codon at codon 283 (lacking D283, H284 and H285); source: E. coli BL21(DE3) with pfocA5N282, membrane fraction solubilised with DDM, purified (Strep-Tactin-Sepharose); not shown: Strep-tag II, N-terminal, kept
B7: FocA5D283 (FocA truncation variant ending with D283, lacking H284 and H285) (domain or fragment, Escherichia coli, UniProt P0AC23 1-283, looked up)
chain: MKADNPFDLLLPAAMAKVAEEAGVYKATKHPLKTFYLAITAGVFISIAFVFYITATTGTGTMPFGMAKLVGGICFSLGLILCVVCGADLFTSTVLIVVAKASGRITWGQLAKNWLNVYFGNLVGALLFVLLMWLSGEYMTANGQWGLNVLQTADHKVHHTFIEAVCLGILANLMVCLAVWMSYSGRSLMDKAFIMVLPVAMFVASGFEHSIANMFMIPMGIVIRDFASPEFWTAVGSAPENFSHLTVMNFITDNLIPVTIGNIIGGGLLVGLTYWVIYLREND
notes: source: E. coli BL21(DE3) with pfocA5D283, membrane fraction solubilised with DDM, purified (Strep-Tactin-Sepharose); not shown: Strep-tag II, N-terminal, kept

Biological target: the molecule itself
Assay: native gel or EMSA; blue-native PAGE, 5-13.5% (w/v polyacrylamide) gradient gel, 5 ug of purified DDM-solubilised FocA variant per lane

Protein	stoichiometry N
B1	5 and 10
B2	5
B3	5 and 10
B4	10 and 5
B5	10 and 5
B6	10 and 5
B7	5
